In patent US10774132B2, “Ultralong complementarity determining regions and uses thereof” (THE SCRIPPS RESEARCH INSTITUTE, priority 2012, dated 2020):

Target: T1, GLP-1 receptor (GLP-1R) (Homo sapiens, UniProt P43220)
T1 construct: expressed in transfected cells; host or cells: HEK293 (with cAMP responsive luciferase reporter gene)
Test: GLP-1R activation, cAMP responsive luciferase reporter in HEK293 cells
Type: cell-based
Conditions: HEK293 cells expressing GLP-1R, 24 h
Protocol: HEK293 cells expressing surface GLP-1R and cAMP responsive luciferase reporter gene were seeded in 384 well plates at a density of 5000 cells per well. […] Subsequently, luciferase assay was performed using One-Glo luciferase reagent according manufacture's instruction (Promega).
HEK293 cells expressing surface GLP-1R and cAMP responsive luciferase reporter gene were seeded in 384 well plates at a density of 5000 cells per well. After 24 h incubation at 37° C. with 5% CO2, cells were treated with various concentrations of peptides and BLV1H12-GLP-1 clip fusion proteins and incubated for another 24 h. Subsequently, luciferase assay was performed using One-Glo luciferase reagent according manufacture's instruction (Promega).

T1 sequence (P43220 24-463, species assumed): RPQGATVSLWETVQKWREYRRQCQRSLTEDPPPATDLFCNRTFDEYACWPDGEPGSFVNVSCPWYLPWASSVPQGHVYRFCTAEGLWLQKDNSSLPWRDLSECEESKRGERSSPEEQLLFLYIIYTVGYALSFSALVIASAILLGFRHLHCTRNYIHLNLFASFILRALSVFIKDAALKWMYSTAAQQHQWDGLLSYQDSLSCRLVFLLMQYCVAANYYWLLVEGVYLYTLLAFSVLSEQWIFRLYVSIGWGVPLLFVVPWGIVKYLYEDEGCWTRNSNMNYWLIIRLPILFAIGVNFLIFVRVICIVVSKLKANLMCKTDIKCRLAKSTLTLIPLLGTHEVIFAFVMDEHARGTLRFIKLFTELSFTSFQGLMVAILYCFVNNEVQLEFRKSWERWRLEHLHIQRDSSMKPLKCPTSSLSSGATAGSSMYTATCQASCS

B1: Ab: bovine BLV1H12 antibody with ultralong CDR3, no insertion; scaffold of the fusions and control (antibody)
heavy: QVQLRESGPSLVKPSQTLSLTCTASGFSLSDKAVGWVRQAPGKALEWLGSIDTGGNTGYNPGLKSRLSITKDNSKSQVSLSVSSVTTEDSATYYCTSVHQETKKYQSCPDGYRERSDCSNRPACGTSDCCRVSVFGNCLTTLPVSYSYTYNYEWHVDVWGQGLLVTVSS
light: QAVLNQPSSVSGSLGQRVSITCSGSSSNVGNGYVSWYQLIPGSAPRTLIYGDTSRASGVPDRFSGSRSGNTATLTISSLQAEDEADYFCASAEDSSSNAVFGSGTTLTVLGQPKSPPSVTLFPPSTEELNGNKATLVCLISDFYPGSVTVVWKADGSTITRNVETTRASKQSNSKYAASSYLSLTSSDWKSKGSYSCEVTHEGSTVTKTVKPSECS
RLU (cAMP responsive luciferase reporter) (1.26953 nM): 5200 RLU
RLU (cAMP responsive luciferase reporter) (2.53906 nM): 5000 RLU
RLU (cAMP responsive luciferase reporter) (5.07813 nM): 5600 RLU
RLU (cAMP responsive luciferase reporter) (10.15625 nM): 5500 RLU
RLU (cAMP responsive luciferase reporter) (20.3125 nM): 5380 RLU
RLU (cAMP responsive luciferase reporter) (40.625 nM): 4600 RLU
RLU (cAMP responsive luciferase reporter) (81.25 nM): 6140 RLU
RLU (cAMP responsive luciferase reporter) (162.5 nM): 5760 RLU
RLU (cAMP responsive luciferase reporter) (325 nM): 5600 RLU
RLU (cAMP responsive luciferase reporter) (650 nM): 5800 RLU
RLU (cAMP responsive luciferase reporter) (1300 nM): 14000 RLU
